Assay results reported in patent US20240182536A1 (MURAL ONCOLOGY, published 2024).
Changes are numbered by the printed parent chain. Names and notes keep the numbering of the source.

T1: IL-18 receptors on HEK-Blue IL-18 reporter cells (UniProt Q13478 19-541; O95256 20-599, limits assumed)
T1 sequence (looked up) 1: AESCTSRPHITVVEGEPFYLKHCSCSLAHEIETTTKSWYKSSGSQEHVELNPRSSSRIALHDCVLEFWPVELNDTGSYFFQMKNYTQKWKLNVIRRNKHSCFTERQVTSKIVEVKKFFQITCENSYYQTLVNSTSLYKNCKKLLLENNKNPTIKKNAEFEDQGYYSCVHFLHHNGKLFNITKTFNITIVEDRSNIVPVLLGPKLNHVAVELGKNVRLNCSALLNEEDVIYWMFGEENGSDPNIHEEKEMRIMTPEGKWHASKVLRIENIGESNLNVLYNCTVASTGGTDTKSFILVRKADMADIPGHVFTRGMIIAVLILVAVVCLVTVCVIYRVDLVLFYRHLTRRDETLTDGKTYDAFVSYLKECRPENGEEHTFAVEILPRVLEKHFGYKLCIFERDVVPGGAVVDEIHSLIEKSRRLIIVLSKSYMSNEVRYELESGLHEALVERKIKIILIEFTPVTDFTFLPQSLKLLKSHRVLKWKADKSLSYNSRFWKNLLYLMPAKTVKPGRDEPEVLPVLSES
T1 sequence (looked up) 2: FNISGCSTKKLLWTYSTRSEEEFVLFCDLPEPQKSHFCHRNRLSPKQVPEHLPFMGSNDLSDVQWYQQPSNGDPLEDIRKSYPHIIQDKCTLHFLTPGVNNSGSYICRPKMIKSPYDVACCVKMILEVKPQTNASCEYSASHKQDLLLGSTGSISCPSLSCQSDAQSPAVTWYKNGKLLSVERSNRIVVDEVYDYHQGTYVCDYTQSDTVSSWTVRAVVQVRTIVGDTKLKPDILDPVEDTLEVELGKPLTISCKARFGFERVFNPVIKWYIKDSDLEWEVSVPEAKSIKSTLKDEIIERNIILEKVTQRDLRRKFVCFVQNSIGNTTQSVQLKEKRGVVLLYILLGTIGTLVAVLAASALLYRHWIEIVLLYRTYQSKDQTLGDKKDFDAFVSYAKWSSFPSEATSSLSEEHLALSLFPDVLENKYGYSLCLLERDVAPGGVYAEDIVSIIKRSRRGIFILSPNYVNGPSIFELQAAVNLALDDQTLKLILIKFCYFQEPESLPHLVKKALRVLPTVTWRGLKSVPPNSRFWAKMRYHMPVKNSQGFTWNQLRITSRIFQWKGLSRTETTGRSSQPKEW

T2: IL-18 binding protein (IL-18BP) (UniProt O95998 31-194)
T2 sequence (looked up): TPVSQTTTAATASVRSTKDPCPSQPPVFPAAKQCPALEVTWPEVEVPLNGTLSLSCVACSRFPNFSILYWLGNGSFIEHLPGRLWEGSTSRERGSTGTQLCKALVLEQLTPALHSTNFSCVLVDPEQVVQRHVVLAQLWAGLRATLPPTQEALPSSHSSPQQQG

B1: IL-18 variant G3P, E6R, D54W, S55Q, T63S, N91T, R104H (ligand)
chain: YFPKLRSKLSVIRNLNDQVLFIDQGNRPLFEDMTDSDMRDNAPRTIFIISMYKWQQPRGMAVSISVKSEKISTLSSENKIISFKEMNPPDTIKDTKSDIIFFQHSVPGHDNKMQFESSSYEGYFLASEKERDLFKLILKKEDELGDRSIMFTVQNED
B2: IL-18 variant G3P, E6V, K53A, D54W, S55P, T63S, N91L, R104K, Q154R (ligand)
chain: B1 chain with R6V, K53A, Q55P, T91L, H104K, Q154R
B3: IL-18 variant G3Y, E6S, K53S, D54W, S55L, N91I (ligand)
chain: B1 chain with P3Y, R6S, K53S, Q55L, S63T, T91I, H104R
B4: IL-18 variant G3N, E6S, K53Q, D54W, S55R, N91T, R104T (ligand)
chain: B1 chain with P3N, R6S, K53Q, Q55R, S63T, H104T
B5: IL-18 variant G3Y, E6S, K53S, D54W, S55L, T63S, N91I (ligand)
chain: B1 chain with P3Y, R6S, K53S, Q55L, T91I, H104R
B6: IL-18 variant G3Q, E6N (ligand)
chain: B1 chain with P3Q, R6N, W54D, Q55S, S63T, T91N, H104R
B7: IL-18 variant G3Q, E6S, S55V, T63A, N91T (ligand)
chain: B1 chain with P3Q, R6S, W54D, Q55V, S63A, H104R
B8: IL-18 variant G3Q, E6H, D54N, S55I, T63S, N91V (ligand)
chain: B1 chain with P3Q, R6H, W54N, Q55I, T91V, H104R

What was measured:
[1] = target: T1, IL-18 receptors on HEK-Blue IL-18 …; test: cell-based or functional assay
[2] = target: T2, IL-18 binding protein (IL-18BP); test: cell-based or functional assay

Binder	Activity, No BP, DF-100000 [1]	Activity, No BP, DF-500000 [1]	Activity, No BP, DF-2500000 [1]	Activity, +100 nM BP, DF-1000002 [2]	Activity, +100 nM BP, DF-5000003 [2]	Activity, +100 nM BP, DF-25000004 [2]	Ratio (-BP/+BP), DF-1000005 [2]	Ratio (-BP/+BP), DF-5000006 [2]	Ratio (-BP/+BP), DF-25000007 [2]
B1	0.74	0.25	0.09	0.89	0.26	0.12	0.83	0.96	0.78
B2	0.56	0.18	0.08	0.6	0.19	0.09	0.94	0.96	0.91
B3	0.7	0.24	0.15	0.78	0.26	0.12	0.9	0.95	1.22
B4	0.46	0.14	0.14	0.46	0.15	0.14	0.99	0.93	1.02
B5	0.68	0.23	0.1	0.62	0.23	0.12	1.09	0.99	0.84
B6	1.95	1.93	1.85	1.88	1.52	0.84	1.04	1.27	2.2
B7	1.94	1.84	1.61	1.15	0.46	0.15	1.68	4.03	10.7
B8	1.89	1.9	1.64	1.8	1.43	0.71	1.05	1.33	2.31
